From the supplement of paper PMC9170038

Tested on: MS2 coat protein
Assay: apparent KD of MS2 coat protein; designed switch direction (-1 OFF switch, 1 ON switch): 1; higher = weaker reporter binding
Summary of the method: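 Stalled E. coli RNA polymerase transcribed designed RNA switches on Illumina chips, which were then titrated with SNAP-549-labelled MS2 coat protein, doubling from 0.7 or 1.5 nM to 3 µM. Steps lasted from 0.8–1.5 h at the lowest concentration to 10–20 min at the highest. The apparent KD is each design's median over clusters of curve-fitted normalised fluorescence.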

[1] = input ligand: microRNA oligo, concentration not stated
[2] = Eterna round: R95, input ligand: FMN 200 uM
[3] = Eterna round: R95, input ligand: microRNA oligo, concentration not stated
[4] = Eterna round: R95, input ligand: none

Row | Sequence | apparent KD of MS2 coat protein (input ligand: FMN 200 uM) | apparent KD of MS2 coat protein [1] | apparent KD of MS2 coat protein (input ligand: none) | apparent KD of MS2 coat protein [2] | apparent KD of MS2 coat protein [3] | apparent KD of MS2 coat protein [4]
1 | GGAUGAUAGACAGGAUAUUGAAUGUAAAUAGGACAAGAAGGGUCAAUGAUAUAAACGACCAGUUACAUGAGGAUCACCCAUGUU [JR_SSNG1_Sub023] (Eterna round: R96, puzzle: Same State NG 1) | 37.1 nM | 30.5 nM | 38.9 nM | – | – | –
2 | GGAUGAUUAACAGGAUAUCAUUUGUAAAUUGGUUGAGAAGGGUUAAUGAUUUAAACGACCUGUUACAUGAGGAUCACCCAUGUU [SameState NG1 #1] (Eterna round: R96, puzzle: Same State NG 1) | – | 45.6 nM | – | – | – | –
3 | GGCCUGGGUCAAGGAUAUGCUACCGUUUCGGUAGCAGAAGGUGAUCACAUGAGGAUCACCCAUGUUUACGCGAAGACGCGCGCC (Eterna round: R96, puzzle: Same State NG 1) | 526 nM | 59.3 nM | 405 nM | – | – | –
4 | GGCUGCGUUGUGAAGGAUAUCCGCGUCUGGACAUGAGGAUCACCCAUGUAUGCUUGGAUCGUGCCGGAGAAGGUCACGAAUGAUU [JR_SS002_Sub1213] (Eterna round: R96, puzzle: Same State 2) | 14 nM | 29.4 nM | 55.2 nM | – | – | –
5 | GGGUAGGAAUUACAGGAUAUAUAGAAGUUGACAUGAGGAUCACCCAUGUAUGGGUUGGGAGGAGGAUAGAAGGGUAUGAGAGGUG [JR_SS2_Sub032] (puzzle: Same State 2) | – | – | – | 125 nM | 123 nM | 113 nM
6 | GGGUAGGAGCUACAGGAUAUAUAGAAGUUGACAUGAGGAUCACCCAUGUAAGGGUACGGAGGCGGAUAGAAGGGUAUGGGAGGUG [JR_SS2_Sub033] (puzzle: Same State 2) | – | – | – | 55.5 nM | 54.2 nM | 64.9 nM
7 | GGUAAACAUGAGGAUCACCCAUGUAAUAUAAUGGGAGGAUAUCUGAAUUAAUUAAAUUAAGGAGAAGGCCUAAUGG [Mat - Same State 1 - Mod of Eli - D49] (puzzle: Same State 1) | – | – | – | 248 nM | 245 nM | 321 nM
8 | GGUAAGAAUUAAGGAUAUCGAGUACAUAUGUUUAACAUGAGGAUCACCCAUGUGGGUUGCGGUAUCGAGAAGGUAAAUUAUAAG [Mat - same State NG 2 - JL mod - D63] (Eterna round: R96, puzzle: Same State NG 2) | 43.3 nM | 29.7 nM | 50.8 nM | – | – | –
9 | GGUAGGUUACUACCAAACAUGAGGAUCACCCAUGUAAAUGGGAAGGAUAUGGUACCUAUUUGGUACCAGAAGGUCCAAAUAAUU [Mat - Same State NG 3 - JL Mod - D95] (Eterna round: R96, puzzle: Same State NG 3) | 180 nM | 327 nM | 1410 nM | – | – | –
10 | GGUAGGUUACUACCAAACAUGAGGAUCACCCAUGUAAGUGGGAAGGAUAUGGUACCUAAAAGGUACCAGAAGGUCCAUAUAGUU [Mat - Same State NG 3 - JL Mod - D99] (Eterna round: R96, puzzle: Same State NG 3) | 202 nM | 228 nM | 711 nM | – | – | –
11 | GGUAGGUUACUACCAACACAUGAGGAUCACCCAUGUUAGUGGGAGGAUAUGGUACCUAUUUGGUACCAGAAGGCCUUGUUAAUU [Fiskers NG3ss - 14] (Eterna round: R96, puzzle: Same State NG 3) | 43.7 nM | 62.8 nM | 87.6 nM | – | – | –
12 | GGUAGGUUACUACCAAUACAUGAGGAUCACCCAUGUUGUCAUGAGGAUAUGGUACCUAUUUGGUACCAGAAGGCAUGUAUAAUU [Fiskers NG3ss - 20] (Eterna round: R96, puzzle: Same State NG 3) | 49.6 nM | 59.5 nM | 62 nM | – | – | –
13 | GGUAGGUUACUACCAAUCACAUGAGGAUCACCCAUGUUGUGGGAGGAUAUGGUACCUAUUUGGUACCAGAAGGCCUUAUUAAUU [Fiskers NG3ss - 11] (Eterna round: R96, puzzle: Same State NG 3) | 74.8 nM | 55.6 nM | 85.2 nM | – | – | –
14 | GGUAUUAACACAGGAUAUGCUUACGAAACGUAAGCAGAAGGGUGAACAUGAGGAUCACCCAUGUAUGUACCAGGGCGUGAGCCC [JL SSNG1 1.73] (Eterna round: R96, puzzle: Same State NG 1) | 137 nM | 510 nM | 1040 nM | – | – | –
15 | GGUCCAGCCUGAGCUGGACAAAAGCAUGUACAUGAGGAUCACCCAUGUCAUGUACAAGCUUUUUGCUCGUCUUAAAG [Mat - hsa-mir-208a - 85] (puzzle: Sensor for hsa-mir-208a) | – | – | – | 195 nM | 18.1 nM | 367 nM
16 | GGUCCAGCCUGAGCUGGACAAAAGCAUGUACAUGAGGAUCACCCAUGUUCAUGUACAAGCUUUUUGCUCGUCUUAGG [salish99_208a_r3_070] (puzzle: Sensor for hsa-mir-208a) | – | – | – | 602 nM | 19.8 nM | 401 nM
17 | GGUCCAGCCUGAGCUGGACUACAGCAUGUACAUGAGGAUCACCCAUGUCAUGUACAAGAAUGUUGUUUGUCUUAAAA [Sensorship 8 - Jieux - Sensor for hsa-mir-208a] (puzzle: Sensor for hsa-mir-208a) | – | – | – | 88.1 nM | 64.3 nM | 118 nM
18 | GGUCCAUCAUGAGGAUAUGGCACCUUAUUGGUGCCAGAAGGCAUGUCUAUAGACAUGAGGAUCACCCAUGUUAUAAAUUGGACC [Eli NG1ss - 92] (Eterna round: R96, puzzle: Same State NG 1) | 20 nM | 98.6 nM | 111 nM | – | – | –
19 | GGUCGGACUCACAUGAGGAUCACCCAUGUUGGCGAAAGCCGGCAGGAUAUCUGUCCGAAAAGGUCAGAGAAGGGCUAACCGACC [Fiskers NG3ss - 60] (Eterna round: R96, puzzle: Same State NG 3) | 65.7 nM | 186 nM | 188 nM | – | – | –
20 | GGUCGGACUCACAUGAGGAUCACCCAUGUUGGCGAAAGCCGGCAGGAUAUCUGUCCGAAAAGGUCAGAGAAGGGUCAACCGACC [Fiskers NG3ss - 59] (Eterna round: R96, puzzle: Same State NG 3) | 322 nM | 82.4 nM | 267 nM | – | – | –
21 | GGUGCAAUUAACGCCUACAUGAGGAUCACCCAUGUAUGUAGGCAGGAUAUCGUUUGCUUUGCAAACGAGAAGGGCUAUAGUACC [JL SSNG3 1.15] (Eterna round: R96, puzzle: Same State NG 3) | 54.4 nM | 130 nM | 157 nM | – | – | –
22 | GGUGCCAAUAAAGCCUACAUGAGGAUCACCCAUGUAUGUAGGUAGGAUAUCGUUUGCAAAGCAAACGAGAAGGGCCUAGGCACC [Mat - Same State NG 3 - JL Mod - D58] (Eterna round: R96, puzzle: Same State NG 3) | 27 nM | 43.7 nM | 53.1 nM | – | – | –
23 | GGUGGGUUACUACCCACACAUGAGGAUCACCCAUGUAUUGGGAAGGAUAUGGUACCUAUUUGGUACCAGAAGGUCCUGAUGGUG [SS-NG3-LRO15] (Eterna round: R96, puzzle: Same State NG 3) | 1280 nM | 312 nM | 1610 nM | – | – | –
24 | GGUGGGUUACUACCCACACAUGAGGAUCACCCAUGUAUUGGGAAGGAUAUGGUGCCUAUUUGGUACCAGAAGGUCCUGAAGGUG [SS-NG3-LRO17] (Eterna round: R96, puzzle: Same State NG 3) | 980 nM | 571 nM | 1770 nM | – | – | –
25 | GGUGGGUUACUACCCACACAUGAGGAUCACCCAUGUUUUGGGAAGGAUAUGGUACCUAUUUGGUACCAGAAGGUCCUGUUGGUG [SS-NG3-LRO14] (Eterna round: R96, puzzle: Same State NG 3) | 702 nM | 445 nM | 1020 nM | – | – | –
26 | GGUUUAGUCGAUUGCCGUUGCACUCGAAAACAUGAGGAUCACCCAUGUUUGGGACAAGCUUUGCUCCUCGUCUUUCC [Sous] (puzzle: Sensor for hsa-mir-208a) | – | – | – | 240 nM | 67.1 nM | 453 nM
27 | GUAAAACAUGAGGAUCACCCAUGUAAUAUAAUGGGAGGAUAUCUGAUUUAAUUUAAUUUAAGAGAAGGCCUAAAUG [Mat - Same State 1 - Mod of Eli - D57] (puzzle: Same State 1) | – | – | – | 39.6 nM | 268 nM | 372 nM
28 | GUAAUAAAGGAAGGAUAUGGGUAAACGGGAAUCCCAGAAGGUCCACAUGAGGAUCACCCAUGUGGUCCCGAAACCACGGGACCG [Enbive] (Eterna round: R96, puzzle: Same State NG 1) | 84.2 nM | 60.5 nM | 75 nM | – | – | –
29 | GUAAUAAUGUAAGGAUAUACAUGAGGAUUUCUCGUAGAAGGUACAAGACAUGAGGAUCACCCAUGUGUCGCUCCGUAGAGCGUA [Mat - Same State NG 1 - JL mod - D15] (Eterna round: R96, puzzle: Same State NG 1) | 297 nM | 168 nM | 448 nM | – | – | –
30 | GUACAGAUCAGAGGAUAUCACGUCGAAUAGACGUGAGAAGGCUGAUCACACAUGAAUAUUAGUACAUGAGGAUCACCCAUGUAC [SSNG1/15-A1] (Eterna round: R96, puzzle: Same State NG 1) | 14.5 nM | 12.8 nM | 18 nM | – | – | –
